B1: Ej4CL1 promoter DRE1 probe (dsDNA)
DNA 1: TCGCCTTGTTGGTTATGCCGACGCAGGATACTTGTCTG
DNA 2: CAGACAAGTATCCTGCGTCGGCATAACCAACAAGGCGA
B2: Ej4CL1 promoter DRE2 probe (dsDNA)
DNA 1: GTTCACAAGACAATCTGGCCGACCTCTTCACAAAATCAGT
DNA 2: ACTGATTTTGTGAAGAGGTCGGCCAGATTGTCTTGTGAAC

Biological target: EjERF39 (Eriobotrya japonica cv. Luoyangqing …, UniProt A0A482LZG5 1-253)
Experiment: EMSA; not given in the material; EMSA as described by Ge et al. (2017)
Details: protein: recombinant; tags: GST (pGEX-4T-1); label: 3' biotin

Sequence of EjERF39 (A0A482LZG5 entry or part of it): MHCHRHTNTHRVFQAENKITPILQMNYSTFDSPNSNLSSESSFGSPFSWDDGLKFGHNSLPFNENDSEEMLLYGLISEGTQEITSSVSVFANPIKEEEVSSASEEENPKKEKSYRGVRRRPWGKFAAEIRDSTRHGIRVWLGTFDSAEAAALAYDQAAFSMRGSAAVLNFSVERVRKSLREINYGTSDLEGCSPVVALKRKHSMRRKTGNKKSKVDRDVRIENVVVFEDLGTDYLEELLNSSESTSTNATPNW

Row | Binder | binding result
1 | B1 | no binding
2 | B2 | binds

— publication PMC7475177, “[…] RESPONSE FACTOR39–MYB8 complex regulates low-temperature-induced lignification of loquat fruit”
